Laboratory results published in the supplement of paper PMC9112550, “Optimization of the antimicrobial peptide Bac7 by deep mutational scanning” (BMC Biology, 2022).

Test system: Escherichia coli TOP10
Experiment: shrunken log2 fold change of peptide-encoding DNA abundance (4.5 h post-induction vs induction); higher = less antimicrobial activity (less host growth inhibition)
Settings: time post-induction: 4.5 h; library: site-saturation at positions 5, 18, 19, 20
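Note: peptides expressed intracellularly from a pBAD plasmid library in pooled LB shake-flask culture, induced with 0.3% L-arabinose, DNA abundance read by NGS, three biological replicates, DESeq2 with apeglm shrinkage.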

Sequence | shrunken log2 fold change
RRIRQRPPRLPRPRPRPLKNPRP | -0.237
RRIRGRPPRLPRPRPRPEYGPRP | -0.0112
RRIRARPPRLPRPRPRPGICPRP | 0.182
RRIRARPPRLPRPRPRPGQNPRP | 0.596
RRIRWRPPRLPRPRPRPLIYPRP | -0.299
RRIRERPPRLPRPRPRPNSPPRP | -0.00647
RRIRYRPPRLPRPRPRPWHMPRP | -0.311
RRIRCRPPRLPRPRPRPAMDPRP | -0.207
RRIRDRPPRLPRPRPRPRRDPRP | 0.492
RRIRGRPPRLPRPRPRPELCPRP | 0.18
RRIRGRPPRLPRPRPRPNMEPRP | 0.22
RRIRERPPRLPRPRPRPMTLPRP | -0.000163
RRIRPRPPRLPRPRPRPQWRPRP | 0.308
RRIRNRPPRLPRPRPRPQLTPRP | -0.026
RRIRERPPRLPRPRPRPMHSPRP | 0.0314
RRIRHRPPRLPRPRPRPHWMPRP | -0.785
RRIRIRPPRLPRPRPRPYPTPRP | -0.159
RRIRLRPPRLPRPRPRPDSWPRP | -0.139
RRIRPRPPRLPRPRPRPDTCPRP | -0.594
RRIRCRPPRLPRPRPRPWVHPRP | -0.169
RRIRKRPPRLPRPRPRPIILPRP | -0.11
RRIRERPPRLPRPRPRPEWKPRP | 0.0685
RRIRHRPPRLPRPRPRPGCWPRP | 0.434

Sequence | shrunken log2 fold change
RRIRMRPPRLPRPRPRPSAKPRP | 0.0449
RRIRVRPPRLPRPRPRPMEWPRP | -0.125
RRIRDRPPRLPRPRPRPHYCPRP | -0.0438
RRIRMRPPRLPRPRPRPEHYPRP | -0.0905
RRIRHRPPRLPRPRPRPQIRPRP | -0.207
RRIRDRPPRLPRPRPRPKCIPRP | -0.318
RRIRHRPPRLPRPRPRPKHSPRP | -0.347
RRIRTRPPRLPRPRPRPKGIPRP | 0.0275
RRIRQRPPRLPRPRPRPSDYPRP | -0.0346
RRIRNRPPRLPRPRPRPWCGPRP | -0.263
RRIRERPPRLPRPRPRPVYEPRP | -0.445
RRIRNRPPRLPRPRPRPWSIPRP | -0.16
RRIRFRPPRLPRPRPRPPACPRP | 0.628
RRIRERPPRLPRPRPRPSWDPRP | -0.247
RRIRIRPPRLPRPRPRPIVHPRP | -0.642
RRIRHRPPRLPRPRPRPEHHPRP | -0.0643
RRIRHRPPRLPRPRPRPINKPRP | -0.652
RRIRGRPPRLPRPRPRPDFFPRP | 1.1
RRIRYRPPRLPRPRPRPWNFPRP | -0.00304
RRIRQRPPRLPRPRPRPMVKPRP | 0.0691
RRIRHRPPRLPRPRPRPQTIPRP | -0.793
RRIRRRPPRLPRPRPRPRSDPRP | 0.323
RRIRLRPPRLPRPRPRPPENPRP | 0.588

Sequence | shrunken log2 fold change
RRIRRRPPRLPRPRPRPMGPPRP | 0.135
RRIRLRPPRLPRPRPRPIKTPRP | -0.0953
RRIRVRPPRLPRPRPRPTETPRP | 0.0324
RRIRTRPPRLPRPRPRPIYVPRP | -0.34
RRIRYRPPRLPRPRPRPIPMPRP | -0.807
RRIRSRPPRLPRPRPRPPECPRP | 0.0423
RRIRQRPPRLPRPRPRPAQYPRP | -0.0388
RRIRDRPPRLPRPRPRPLYEPRP | -0.0254
RRIRNRPPRLPRPRPRPWIQPRP | -0.209
RRIRCRPPRLPRPRPRPGDEPRP | 0.105
RRIRNRPPRLPRPRPRPHANPRP | 0.0684
RRIRLRPPRLPRPRPRPMRGPRP | 0.839
RRIRCRPPRLPRPRPRPIENPRP | -0.209
RRIRIRPPRLPRPRPRPYKFPRP | -0.616
RRIRLRPPRLPRPRPRPVPTPRP | 0.0616
RRIRPRPPRLPRPRPRPQNPPRP | -0.216
RRIRARPPRLPRPRPRPFTAPRP | -0.111
RRIRWRPPRLPRPRPRPPQYPRP | 0.0672
RRIRIRPPRLPRPRPRPEKSPRP | 0.028
RRIRCRPPRLPRPRPRPIIGPRP | -0.304
RRIRPRPPRLPRPRPRPIPKPRP | 0.28
RRIRYRPPRLPRPRPRPQNEPRP | -0.483
RRIRVRPPRLPRPRPRPCVLPRP | -0.44

Sequence | shrunken log2 fold change
RRIRCRPPRLPRPRPRPGHCPRP | -0.0435
RRIRMRPPRLPRPRPRPFKNPRP | 0.129
RRIRWRPPRLPRPRPRPPKVPRP | 0.136
RRIRERPPRLPRPRPRPESLPRP | 0.0354
RRIRMRPPRLPRPRPRPGMIPRP | -0.00139
RRIRFRPPRLPRPRPRPFWYPRP | -0.102
RRIRIRPPRLPRPRPRPDAFPRP | -0.15
RRIRFRPPRLPRPRPRPYYYPRP | -0.392
RRIRPRPPRLPRPRPRPQGHPRP | 0.05
RRIRKRPPRLPRPRPRPRVQPRP | 0.386
RRIRPRPPRLPRPRPRPPRFPRP | 0.557
RRIRARPPRLPRPRPRPCAFPRP | 0.303
RRIRDRPPRLPRPRPRPRLTPRP | 0.41
RRIRFRPPRLPRPRPRPIRTPRP | -0.0861
RRIRFRPPRLPRPRPRPTNSPRP | -0.271
RRIRRRPPRLPRPRPRPMAHPRP | 0.0412
RRIRVRPPRLPRPRPRPSALPRP | -0.0271
RRIRVRPPRLPRPRPRPVPIPRP | -0.0742
RRIRERPPRLPRPRPRPTVCPRP | 0.141
RRIRMRPPRLPRPRPRPAMWPRP | 0.511
RRIRARPPRLPRPRPRPPGQPRP | 0.0736
RRIRHRPPRLPRPRPRPKNQPRP | -0.16
